Data on 2 molecules can be found in paper PMC6684648 (2019).

What is called Kd is the concentration at which binding is half-saturated.

The target of this test is human IGF2R extra-cellular domains 1-15 fused at the C-terminal to rat CD4 (domains 3 + 4), biotin acceptor … (human, UniProt P11717 41-2304, biotin on the BirA acceptor tag). The test is described as follows: SPR. (SPR reads the build-up and loss of mass on a sensor chip optically.)

B1: bovine β-glucuronidase (290 KD) (enzyme)
chain: LQGGMLYPRESRSRERKELDGLWSFRADFSDNRRQGFEQQWYRAPLRESGPTLDMPVPSSFNDVGQDGQLRSFVGWVWYEREITLPQRWTEDLGTRVVLRIGSAHYYAIVWVNGVHVLEHEGGHLPFEADISKLVQSGPLSSCRITIAINNTLSPHTLPPGTILYKTDPSMYPKGYFVQNTKFDFFNYAGLHRSVLLYTTPTTYIDDITVTTDMDQDIGLVNYQIIVQGSDHFQVDVSLLDEEGKVMAKGAGAEGQLQVPSAHLWWPYLMHEHPAYLYSLEVKLTAQTAVGPVSDFYTLPVGIRTVAVTKSQFLINGKPFYFRGVNKHEDADIRGKGFDWPLLVKDFNLLRWLGANAFRTSHYPYSEEVLQLCDRYGIVVIDESPGVGIVLVESFSNVSLQHHLEVMEEMIRRDKNHPAVVMWSLANEPASFLKPAGYYFKTLIAHTKALDPSRPVTFVTNTNYEADLGAPYVDIICVNSYYSWYHDYGHMEVIQLQLATQFENWYKAYQKPMIQSEYGADAIEGFHEDPPLMFSEEYQKGLLQQYHVVLDQKRKEYVVGELIWNFADFMTNQSPVRMIGNRKGIFTRQRQPKSAAFLLRERYWKLANETRYQRSAVTSQCVGSGLFTV
modifications: mannose 6-phosphate (M6P-beta-glucuronidase)
For B1, the Kd amounted to 52.3 nM.

B2: human glu-plasminogen (88 KD) (natural protein)
chain: EPLDDYVNTQGASLFSVTKKQLGAGSIEECAAKCEEDEEFTCRAFQYHSKEQQCVIMAENRKSSIIIRMRDVVLFEKKVYLSECKTGNGKNYRGTMSKTKNGITCQKWSSTSPHRPRFSPATHPSEGLEENYCRNPDNDPQGPWCYTTDPEKRYDYCDILECEEECMHCSGENYDGKISKTMSGLECQAWDSQSPHAHGYIPSKFPNKNLKKNYCRNPDRELRPWCFTTDPNKRWELCDIPRCTTPPPSSGPTYQCLKGTGENYRGNVAVTVSGHTCQHWSAQTPHTHNRTPENFPCKNLDENYCRNPDGKRAPWCHTTNSQVRWEYCKIPSCDSSPVSTEQLAPTAPPELTPVVQDCYHGDGQSYRGTSSTTTTGKKCQSWSSMTPHRHQKTPENYPNAGLTMNYCRNPDADKGPWCFTTDPSVRWEYCNLKKCSGTEASVVAPPPVVLLPDVETPSEEDCMFGNGKGYRGKRATTVTGTPCQDWAAQEPHRHSIFTPETNPRAGLEKNYCRNPDGDVGGPWCYTTNPRKLYDYCDVPQCAAPSFDCGKPQVEPKKCPGRVVGGCVAHPHSWPWQVSLRTRFGMHFCGGTLISPEWVLTAAHCLEKSPRPSSYKVILGAHQEVNLEPHVQEIEVSRLFLEPTRKDIALLKLSSPAVITDKVIPACLPSPNYVVADRTECFITGWGETQGTFGAGLLKEAQLPVIENKVCNRYEFLNGRVQSTELCAGHLAGGTDSCQGDSGGPLVCFEKDKYILQGVTSWGLGCARPNKPGVYVRVSRFVTWIEGVMRNN
Take B2: the Kd worked out at 43.5 nM.
